The data set deals with the molecule itself. Nature of the data set: thioflavin T fluorescence; synthetic peptides 5-50 µM in PBS, incubated 24 h at 37 °C, then 25 µM thioflavin T; fluorescence spectra.

Here are results for one protein from paper PMC8185068, “Intracellular artificial supramolecules based on de novo designed Y15 peptides” (Nature Communications, 2021).

B1: Y15 peptide (peptide)
peptide: YEYKYEYKYEYKYEY
notes: de novo designed self-assembling peptide Y15; source: synthetic peptide (Fmoc solid-phase synthesis, RP-HPLC)
Take B1: the binding result was “binds”.
